These results are taken from US20170306005A1 (NASCIENT, published 2017).

The target of test [1] is T1, human tenascin-R rCd4-His-FBG (rat; human, UniProt P05540 207-392, limits assumed).
T1 construct: domain: domains 3 and 4; C-terminal FBG fusion; also called Hu TNR; human TNR rCd4-His-FBG; not shown: 6His tag
T1 sequence (chain (part 1 of 2)): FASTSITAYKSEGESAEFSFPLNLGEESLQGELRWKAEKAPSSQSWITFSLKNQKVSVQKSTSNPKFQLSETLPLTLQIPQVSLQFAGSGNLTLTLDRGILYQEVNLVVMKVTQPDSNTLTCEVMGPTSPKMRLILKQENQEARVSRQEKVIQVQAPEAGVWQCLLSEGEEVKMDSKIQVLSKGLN
T1 sequence (chain (part 2 of 2)): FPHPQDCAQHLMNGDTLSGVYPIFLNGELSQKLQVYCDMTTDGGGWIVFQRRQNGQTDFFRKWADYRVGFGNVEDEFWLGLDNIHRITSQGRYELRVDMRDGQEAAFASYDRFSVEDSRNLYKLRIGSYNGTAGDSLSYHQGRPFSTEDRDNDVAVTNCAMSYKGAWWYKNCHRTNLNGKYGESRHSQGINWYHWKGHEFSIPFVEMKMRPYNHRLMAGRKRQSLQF
Kind of test: SPR steady state, captured Fab, 25 C. As for the experimental part: (§1) Experiments were performed using a BIAcore T100 instrument with CM5 sensor chip according to the protocol provided with the Human Fab Capture Kit (GE, 28-9583-25). […] After reference signal subtraction, the data was fitted to a global 1:1 fit using the T100 BIAevaluation software (FIGS. 6 a-d).

Test [2] concerns the target T2, mouse tenascin-C rCd4-His-FBG (rat; mouse, UniProt P05540 207-392, limits assumed).
T2 construct: domain: domains 3 and 4; C-terminal FBG fusion; biotinylated in the ELISA screen; also called Mu TNC; mouse TNC rCd4-His-FBG; not shown: 6His tag
T2 sequence (chain (part 1 of 2)): T1 sequence (chain (part 1 of 2))
T2 sequence (chain (part 2 of 2)): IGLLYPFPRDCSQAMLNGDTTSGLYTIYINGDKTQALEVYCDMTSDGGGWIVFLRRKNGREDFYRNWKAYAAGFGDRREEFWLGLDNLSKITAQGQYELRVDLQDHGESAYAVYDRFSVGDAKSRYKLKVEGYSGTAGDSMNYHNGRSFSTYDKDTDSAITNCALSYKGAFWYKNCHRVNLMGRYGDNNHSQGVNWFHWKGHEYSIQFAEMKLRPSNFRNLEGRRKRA
The test is described as follows: SPR, parental antibody.

Test [3] has as its target T3, human tenascin-C rCd4-His-FBG (rat; human, UniProt P05540 207-392, limits assumed).
T3 construct: domain: domains 3 and 4; C-terminal FBG fusion; biotinylated in the ELISA and HTRF screens; also called Hu TNC; human TNC rCd4-His-FBG; not shown: 6His tag
T3 sequence (chain (part 1 of 2)): T1 sequence (chain (part 1 of 2))
T3 sequence (chain (part 2 of 2)): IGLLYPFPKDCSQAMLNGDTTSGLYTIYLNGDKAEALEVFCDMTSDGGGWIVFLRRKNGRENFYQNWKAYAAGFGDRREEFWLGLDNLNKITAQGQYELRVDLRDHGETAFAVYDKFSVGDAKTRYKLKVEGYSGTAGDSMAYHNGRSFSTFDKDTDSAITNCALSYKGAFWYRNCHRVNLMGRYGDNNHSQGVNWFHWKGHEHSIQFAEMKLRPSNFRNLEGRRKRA
Kind of test: SPR, captured Fab, 25 C. How it is done:
as §1
In general terms: SPR reads the build-up and loss of mass on a sensor chip optically.

Test [4] concerns the target T2, mouse tenascin-C rCd4-His-FBG. Kind of test: SPR, captured Fab, 25 C. As for the experimental part:
as §1

The next test addresses T4, human Fc-His-FBG (human, UniProt P24821 1974-2201).
T4 sequence: T3 sequence (chain (part 2 of 2))
Kind of test: cell-based or functional assay.

The target in the next test is T5, Human FGB-rCd4.
T5 construct: Not the same construct as m1, which has the FBG at the C terminus; also called human TNC FBG-rCD4; human tenascin-C FBG-rCd4-His (FBG at the N terminus of the rat Cd4 tag); not shown: rat Cd4 (domains 3 and 4) tag, the C-terminal His6 tag and the vector-derived junction residues of pBIOCAM4
T5 chain: T3 sequence (chain (part 2 of 2))
The test is described as follows: ELISA (DELFIA), antigen coated on the well, purified Fab at 50 nM, detected with anti-kappa or anti-lambda mAb and Europium-conjugated anti-mouse mAb. (In general: In an ELISA, binding on a coated surface is turned into a signal by an enzyme label.)

In test [5] the target is T3, human tenascin-C rCd4-His-FBG. Kind of test: SPR, captured purified IgG4, 37 C. As for the experimental part:
(§2) Detailed kinetic parameters were evaluated for the 9 prioritised IgG4 antibodies. Binding characteristics were determined for interaction with human, rat and dog TNC rCD4-His-FBG, and human TNR rCD4-His-FBG. Kinetic assays followed essentially the same protocols as for the off-rate determinations described above, with some modifications as follows. […] Purified anti-FBG IgG4 was diluted to a concentration of 3.5 nM in PBS, pH 7.4, 0.05% Tween-20 and injected into FC2 at a flow rate of 10 μl/min, 60 s contact time. […] Antigens were prepared by doubling dilution in PBS, pH 7.4, 0.05% Tween-20 (highest concentration 100 nM except mouse rCD4-His-FBG which was 7 nM). Assays were performed at 37° C. (30 μl/min, 120 s contact time; mouse rCD4-His-FBGFBG 10 μl/min, 60 s contact time), with both the flow cell and injection chamber equilibrated to this temperature. As before, kinetic parameters were determined by reference cell subtraction and fitting the sensogram experimental data assuming a 1:1 interaction using BIAevaluation software (GE, BR-1005-97).

The target in test [6] is T6, dog tenascin-C rCD4-His-FBG (rat; dog, UniProt P05540 207-392, limits assumed).
T6 construct: domain: domains 3 and 4; C-terminal FBG fusion; also called Dog TNC; not shown: 6His tag
T6 sequence (chain (part 1 of 2)): T1 sequence (chain (part 1 of 2))
T6 sequence (chain (part 2 of 2)): T2 sequence (chain (part 2 of 2)) with I29L, T34A, S89H, Q104R, E108K, S109T, S124T, N142A, Y152F
The test is described as follows: SPR, captured purified IgG4, 37 C. How it is done: as §2

The target of test [7] is T7, rat tenascin-C rCd4-His-FBG (rat, UniProt P05540 207-392, limits assumed).
T7 construct: domain: domains 3 and 4; C-terminal FBG fusion; also called Rat TNC; rat TNC rCD4-His-FBG; not shown: 6His tag
T7 sequence (chain (part 1 of 2)): T1 sequence (chain (part 1 of 2))
T7 sequence (chain (part 2 of 2)): T2 sequence (chain (part 2 of 2)) with A72T
Kind of test: SPR, captured purified IgG4, 37 C. How it is done:
as §2

Test [8] has as its target T2, mouse tenascin-C rCd4-His-FBG. The test is described as follows: SPR, captured purified IgG4, 37 C. As for the experimental part:
as §2

Test [9] has as its target T3, human tenascin-C rCd4-His-FBG. Kind of test: SPR off-rate screen, captured IgG4 supernatant, 25 C. Put shortly: (§3)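 SPR at 25 °C: IgG4 (S241P) from culture supernatant, diluted 1:2 in 2×PBS-T, captured on anti-human Fc surface; antigen injected at a fixed 15 nM (human and mouse TNC rCd4-His-FBG) or 100 nM (human TNR rCd4-His-FBG), 30 μl/min. Association 1 min, dissociation 5 min; off-rates from reference-subtracted 1:1 fits.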

Test [10] deals with T2, mouse tenascin-C rCd4-His-FBG. The description is as above. The procedure, abridged: as §3
For test [11], the target named is T1, human tenascin-R rCd4-His-FBG. Kind of test: SPR (BIAcore), Fab captured (23 nM) on anti-CL kappa / anti-CL lambda CM5 sensor chip, rCd4-FBG injected up to 2 µM; steady-state plot of response against concentration [Con't]. How it is done: as §1
Test [12] deals with T2, mouse tenascin-C rCd4-His-FBG. The test is described as follows: SPR steady state, captured Fab, 25 C. How it is done: as §1
In test [13] the target is T1, human tenascin-R rCd4-His-FBG. The test is described as follows: SPR, captured Fab, 25 C. How it is done: as §1
Test [14] shares this target. The test is described as follows: SPR, captured purified IgG4, 37 C. How it is done: as §2
Test [15] shares this target. Kind of test: SPR off-rate screen, captured IgG4 supernatant, 25 C. Put shortly:
as §3

Residue numbers refer to the chain shown, from its start. Names may count otherwise.

B1: Fab F3 (Fab, V domains shown)
VH: EVQLLESGGGLVQPGGSLRLSCAASGFTFSSYGMHWVRQAPGKGLEWVAVISYDGSNKYYADSVKGRFTISRGNSKNTLYLQMNSLKAEDTAVYYCAREGYDQLFSAESNAFDIWGQGTLVTVSS
VL: NFMLAQPHSVSESPGKTVTISCTRSSGSIASYFVQWFQQRPGSAPTAVIYEDNQRPSGVPDRFSGSIDSSSNSASLTISGLKTEDEADYYCQSYDSSNWVFGGGTKVTVLG
notes: monomeric Fab
In turn, B1 yielded a Kd in test [1] of 1810 nM. Further, in [2], the “fold difference in affinity between human and mouse rCd4-his-FBG” value is 2.6 fold. For the same molecule, in [3], the Kd stood at 27.4 nM, the koff worked out at 0.00346 s⁻¹ and the kon turned out to be 126000 M⁻¹ s⁻¹. In test [4], this molecule showed a dissociation constant (Kd) of 70.6 nM, a koff of 0.00642 s⁻¹ and a kon of 91000 M⁻¹ s⁻¹. Also, in the test with human Fc-His-FBG, the “IC50, inhibition of Fc-His-HuFBG-evoked IL-8 release, THP1-Blue cells” value came to 13.8 nM and the “IC50, inhibition of Fc-His-HuFBG-evoked alkaline phosphatase, THP1-Blue cells” value came to 8.4 nM. Also, the binding result with Human FGB-rCd4 was “binds”.

B2: 165_13_B1 human IgG4 (antibody, V domains shown)
VH: QVQLVESGGGLVQPGRSLRLSCAASGFTFDDYAMHWVRQAPGKGLEWVSGISGSGGSTYYADSVKGRFTISRDNAKNSLYLQMNSLRAEDTALYYCAKVMSSMEDAFDIWGQGTMVTVSS
VL: DIQMTQSPASLPTPVGDRVTITCRASQYIQGFLNWYQQKPGKAPKLLIYDASNLETGVPSRFSGSGSGTDFTLTISSLQPEDFATYYCQQSYSTPQTFGQGTKVDIKR
notes: human IgG4 with hinge S241P
Take B2: the Kd in test [5] was found to be 0.26 nM; in [6] it was 2.85 nM; in test [7], 2.2 nM; in test [8], 0.96 nM. The koff amounted to 0.00188 s⁻¹ in [5]; 0.0187 s⁻¹ in [6]; 0.00684 s⁻¹ in test [7]; 0.000706 s⁻¹ in [8]; 1.5e-06 s⁻¹ in test [9]; 1.7e-06 s⁻¹ in test [10]. The kon stood at 7.27e+06 M⁻¹ s⁻¹ in test [5], 6.55e+06 M⁻¹ s⁻¹ in test [6], 3.11e+06 M⁻¹ s⁻¹ in test [7] and 733000 M⁻¹ s⁻¹ in test [8].

B3: Fab D8 (Fab, V domains shown)
VH: EVQLVQSGAEVKKPGASVKVSCKASGYTFTSYGISWVRQAPGQGLEWMGWISAYNGNTNYAQKLQGRVTMTTDTSTSTAYMELRSLRSDDTAVYYCARNQDSSSDYWGQGTLVTVSS
VL: B2 VL with P14S, P95L
notes: monomeric Fab
Consider B3, for which the Kd was 1110 nM in test [11]; 913 nM in test [1]; 41.2 nM in [12]; 8.49 nM in [3]; 1030 nM in test [13]; 48.4 nM in test [4]. Moreover, the koff in [3] stood at 0.0131 s⁻¹; in test [13], 0.57 s⁻¹; in [4], 0.0716 s⁻¹. For the same molecule, the kon in test [3] came to 1.54e+06 M⁻¹ s⁻¹; in test [13], 555000 M⁻¹ s⁻¹; in test [4], 1.48e+06 M⁻¹ s⁻¹. The “IC50, inhibition of Fc-His-HuFBG-evoked IL-8 release, THP1-Blue cells” value in the test with human Fc-His-FBG came to 14.9 nM. The “IC50, inhibition of Fc-His-HuFBG-evoked alkaline phosphatase, THP1-Blue cells” value with human Fc-His-FBG stood at 7.2 nM. Further, the binding result with Human FGB-rCd4 is given as “binds”.

B4: 160_01_A4 human IgG4 (antibody, V domains shown)
VH: EVRLVQSGAEVKKPGASVKVSCKVSGYTLTELSMHWVRQAPGKGLEWMGGFDPEDGETIYAQKFQGRVTMTEDTSTDTAYMELSSLRSEDTAVYYCATAQKETLGNAIWGQGTLVTVSS
VL: B2 VL with P14S, K45R, D50A, N53T, E55Q, T56D, S67Y, Q96W, D105E
notes: human IgG4 with hinge S241P; also called Antibody 160 01 A4 (derived from 2A5)
B4: the Kd in [5] is 0.21 nM; in test [6], 0.094 nM; in test [7], 1.49 nM; in [14], 15.2 nM; in test [8], 1.23 nM. The koff in test [5] was found to be 0.0005 s⁻¹; in [6], 0.00018 s⁻¹; in test [7], 0.00189 s⁻¹; in test [14], 0.00399 s⁻¹; in test [8], 0.000146 s⁻¹; in [9], 6.7e-06 s⁻¹. Further, the results for the koff in test [15] and in [10] were 0.011 s⁻¹ and 5.9e-06 s⁻¹, respectively. The kon in [5] was 2.35e+06 M⁻¹ s⁻¹; in [6] it was 1.9e+06 M⁻¹ s⁻¹; in [7], 1.27e+06 M⁻¹ s⁻¹; in [14] it was 260000 M⁻¹ s⁻¹; in [8], 118000 M⁻¹ s⁻¹. In [14], the “fold lower affinity than for human TNC FBG” value was more than 70 fold.

Usually Kd stands for the free concentration of one partner at which half of the binding sites on the other are occupied at equilibrium, for simple one-to-one binding. High values mean lower affinity, low ones higher affinity. In general, koff refers to the rate constant with which the complex falls apart. For orientation: kon means the rate constant with which the complex forms. A higher kon goes with fast association.
